Earlier results, collected in patent US20240382567A1, “Long-acting PTH compound treatments” (Ascendis Pharma Bone Diseases A/S, priority 2021, published 2024).
Like-named read-outs stand apart in the source and are kept apart here.

Tested on: patients with hypoparathyroidism

B1: PTH(1-84): daily injection of PTH(1-84), approved as adjunct to calcium and vitamin D to control hypocalcemia in hypoparathyroidism (protein, UniProt P01270 32-115, looked up)
Parathyroid hormone: SVSEIQLMHNLGKHLNSMERVEWLRKKLQDVHNFVALGAPLAPRDAGSQRPRKKEDNVLVESHEKSLGEADKADVNVLTKAKSQ
modifications: Parathyroid hormone
notes: daily injection of PTH(1-84), approved as adjunct to calcium and vitamin D to control hypocalcemia in hypoparathyroidism
In the case of B1, the “Total hip BMD increase from baseline” value (3 years, P=0.04) is given as 2.10%, the “Lumbar spine BMD increase” value (at 24 months, P=0.01) is given as 3.2% and the “Distal one third radius BMD mean loss” value (study conclusion (year 6), P=0.0001 vs baseline) is given as 4.4%. The “Femoral neck BMD increase” value (year 3, P=0.04) was 2.6%, the “Distal one third radius T-score” value (year 6) was −0.28 and the “Femoral neck BMD versus baseline” value (year 6) was “not different from baseline”. For the same molecule, the “Lumbar spine BMD mean gain from baseline” value (year 6, P=0.004) was 3.8% and the “Total hip BMD increase from baseline” value (year 6, P=0.02) was 2.4%.
